Measured values published in patent US20080064629A1, “Amphiregulin as a Protective Agent in Acute Hepatic Injury” (priority 2004, published 2008).

Assays:
Type in all cases: cell-based
[1] = tested on: mouse hepatocytes in primary culture; assay: Apoptosis induced by actinomycin D and Jo2 antibody in mouse hepatocytes in primary culture
From the text: In order to determine whether the in vivo antiapoptotic effects of AR could be mediated by direct action of AR on liver parenchymal cells, the inventors used mouse hepatocytes in primary culture. It has been reported that hepatocytes exposed to Jo-2 antibodies undergo apoptosis effectively in presence of actinomycin D [(5), (6), (33) Ni, R., Tomita, Y., Matsuda, K., Ichiara, A., Ishimura, K., Ogasawara, J., Nagata, S. 1994. Fas-mediated apoptosis in primary cultured mouse hepatocytes. Exp. Cell Res. 215: 332-337]. Hepatocytes were pretreated with different concentrations of AR during […] before addition of actinomycin D and Jo2 antibody. Measurements of apoptosis and related molecular events, were made 18 h later. […] Likewise, they found antiapoptotic protein Bcl-xL to be induced by treatment with AR in mouse hepatocytes treated with Jo2 (FIG. 4B). In order to identify the AR antiapoptotic signaling mechanisms, PI-3K/Akt and ERK1/2 pathways were studied, as they are general mediators of cell survival [(4), (6)]. […] A key signaling molecule implicated in protection against liver damage induced by Fas is STAT3 [(34) Shen, Y., Devgan, G., Darnell, J. E., Bromberg, J. F. 2001. Constitutively activated Stat3 protects fibroblasts from serum withdrawal and UV-induced apoptosis and antagonizes the proapoptotic effects of activated Statl. Proc. Natl. Acad. Sci. USA. 98: 1543-1548. (35) Haga, S., Terui, K., Zhang, H. Q., Enosawa, S., Ogawa, W., Inoue, H., Okuyama, T., Takeda, K., Akira, S., Ogino, T., et al. 2003. Stat3 protects against Fas-induced liver injury by redox-dependent and -independent mechanisms. J. Clin. Invest. 112: 989-998].
(§1) Hepatocytes were isolated from male Wistar rats (150 g) and C57/BL6 mice (20 g) by perfusion with collagenase (Gibco-BRL, Paisley, UK) as described elsewhere [(18), (20)]. Cells (5×10^5 cells per well) were plated onto 6-well plates coated with collagen (type I collagen, Collaborative Biomedical, Bedford, Mass., USA). Cultures were maintained in MEM medium supplemented with 10% fetal calf serum (FCS), non-essential amino acids, glutamine 2 mM and antibiotics (all supplied by Gibco-BRL). After 2 h of incubation, the medium was removed and cells were again cultured in the same medium with 5% FCS. Where applicable, hepatocytes were treated with IL-1β or TNFα from Roche (Mannheim, Germany), HGF or forskolin from Calbiochem (San Diego, Calif., USA), IL6 from RD Systems (Wiesbaden-Nordenstadt, Germany), or PGE2 from Alexis QBiogene (Carlsbad, Calif., USA).
Apoptosis was induced in cultured mouse hepatocytes by treatment with 0.5 μg/ml of Jo2 antibody and 0.05 μg/ml of actinomycin D as described elsewhere (5). Where applicable, the hepatocytes were treated with AR 6 h before the addition of Jo2 antibody and actinomycin D. Apoptosis was estimated by determining soluble histone-DNA complexes using the Cell Death Detection Assay (Roche). ELISA tests for determining cell death were carried out following the manufacturer's instructions. The specific enrichment of mono- and oligonucleosomes released in the cytoplasm (enrichment factor, EF) was calculated as the ratio between the absorbance values of the samples corresponding to treated cells and control cells. […]
Caspase-3 activity in mouse hepatocytes and liver tissue lysates was assessed using the Caspase-3/CPP32 colorimetric assay kit (BioVision, Palo Alto, Calif., USA). […]

rat hepatocytes = assay: DNA synthesis ([3H]thymidine incorporation) in cultured rat hepatocytes; conditions: increasing concentrations of AR, 30 h of treatment
Experimental: For DNA synthesis, rat hepatocytes were plated to a density of 3×10^4 cells/well in 96-well plates coated with collagen in MEM medium supplemented with 10% FCS. Five hours after plating, the medium was changed and cells were maintained in absence of serum for another 20 hours. DNA synthesis was assayed after 30 h of treatment with AR. A pulse of [^3H]thymidine was administered (1 μCi/well)(Amersham Biosciences, Piscataway, N.J., USA) 22 h after the addition of AR. Cells were harvested, and the incorporation of thymidine was determined with a scintillation counter. Evaluations were made of the effect of AR on DNA synthesis in the presence of MEK1 inhibitor, PD98059, PI-3K inhibitor, LY294002, p38 MAPK inhibitor, SB202190, JNK inhibitor, SP600125, and of the EGF-R tyrosine kinase activity inhibitor, PD153035—all supplied by Calbiochem.

isolated rat hepatocytes = assay: TGFα and CT-1 gene expression in cultured rat hepatocytes treated with AR; conditions: AR treatment, different periods of time
Experimental: as §1, with “Where applicable, hepatocytes were treated with IL-1β or TNFα from Roche (Mannheim, Germany), HGF or forskolin from Calbiochem (San Diego, Calif., USA), IL6 from RD Systems (Wiesbaden-Nordenstadt, Germany), or PGE2 from Alexis QBiogene (Carlsbad, Calif., USA).” left out
Total RNA was extracted using TRI reagent (Sigma). […] PCR products were subjected to electrophoresis in 2% agarose gels, followed by staining with ethidium bromide and quantification using Molecular Analyst software (Bio-Rad, Hercules, Calif., USA). […]
Real time PCR was performed using an iCycler (BioRad) and iQ SYBR Green Supermix (Bio-Rad). In order to monitor the specificity of final PCR products, the latter were analysed by fusion curves and electrophoresis. The amount of each transcript was expressed as n-fold the difference versus expression of the reference gene (β-actin)(2^ΔCt, where ΔCt represents the difference in threshold cycle between target genes and control gene).

B1: amphiregulin (protein)
chain: SVRVEQVVKPPQNKTESENTSDKPKRKKKGGKNGKNRRNRKKKNPCNAEFQNFCIHGECKYIEHLEAVTCKCQQEYFGERCGEKSMKTHSMIDSSLSK
notes: polypeptide growth factor belonging to the EGF family, ligand of EGF receptor; human recombinant AR (Sigma) used
- antiapoptotic protein Bcl-xL (Western blot) ([1]; AR 20 nM, mouse hepatocytes treated with Jo2): induced
- proteolysis and activation of caspase-3 induced by Jo2 antibody ([1]; AR 20 nM, mouse hepatocytes treated with actinomycin D and Jo2): significantly inhibited
- apoptosis (enrichment factor of mono- and oligonucleosomes) ([1]; increasing concentrations of AR before actinomycin D and Jo2, measured 18 h later): protected from apoptosis by AR in a dose-dependent manner
- DNA synthesis, incorporation of [3H]thymidine to DNA (rat hepatocytes): stimulating the incorporation of [^3H]thymidine to DNA in a dose-dependent manner
- levels of mRNA encoding CT-1 (isolated rat hepatocytes): increased
- levels of mRNA encoding TGFα (isolated rat hepatocytes): increased
